Laboratory results published in patent US9187525B2, “Methods of treating ophthalmic diseases using NPR-B agonists” (Shire Orphan Therapies GmbH, dated 2015).
Numbered stars: 1 amine (or outer) side, 2 acyl side, 3 side chain; on linkers, the order of the positions; unused ones are H or OH. Square brackets hold non-standard residues; d marks the D form. Ends that are not written are not given here. * marks the point of attachment. Nbhp = rac-(2,3-dihydroxy-propylamino)-acetic acid, O=C(CN(CC(O)CO[*:3])[*:1])[*:2]; Nhpr = (3-hydroxy-propylamino)acetic acid, O=C(CN(CCCO[*:3])[*:1])[*:2]; Gluc‑Aoa = (2,3,4,5,6-pentahydroxyhexylidenaminooxy)-acetic acid; Pro(trans-4-NH2) = O=C([C@@H]1C[C@@H](N[*:3])CN1[*:1])[*:2]; Sni = (S)-nipecotic acid, O=C([C@H]1CCCN([*:1])C1)[*:2]; Hyp = O=C(O)[C@@H]1C[C@@H](O)CN1; dAoc(2) = CCCCCC[C@@H](N)C(=O)O; Aoc(2) = CCCCCC[C@H](N)C(=O)O; NMeL = CN[C@@H](CC(C)C)C(=O)O; d(hSer) = N[C@H](CCO)C(=O)O; orn(Me2) = not defined here; dDab = NCC[C@@H](N)C(=O)O; Octanoyl = CCCCCCCC(=O)*; 1270 = not defined here; 1888 = not defined here; 1913 = not defined here; Adx = not defined here; Che = not defined here; Oct = not defined here; aze = not defined here; leu = not defined here; thz = not defined here; Occ = octanoic acid

T1: natriuretic peptide receptor-B (human)
T1 chain: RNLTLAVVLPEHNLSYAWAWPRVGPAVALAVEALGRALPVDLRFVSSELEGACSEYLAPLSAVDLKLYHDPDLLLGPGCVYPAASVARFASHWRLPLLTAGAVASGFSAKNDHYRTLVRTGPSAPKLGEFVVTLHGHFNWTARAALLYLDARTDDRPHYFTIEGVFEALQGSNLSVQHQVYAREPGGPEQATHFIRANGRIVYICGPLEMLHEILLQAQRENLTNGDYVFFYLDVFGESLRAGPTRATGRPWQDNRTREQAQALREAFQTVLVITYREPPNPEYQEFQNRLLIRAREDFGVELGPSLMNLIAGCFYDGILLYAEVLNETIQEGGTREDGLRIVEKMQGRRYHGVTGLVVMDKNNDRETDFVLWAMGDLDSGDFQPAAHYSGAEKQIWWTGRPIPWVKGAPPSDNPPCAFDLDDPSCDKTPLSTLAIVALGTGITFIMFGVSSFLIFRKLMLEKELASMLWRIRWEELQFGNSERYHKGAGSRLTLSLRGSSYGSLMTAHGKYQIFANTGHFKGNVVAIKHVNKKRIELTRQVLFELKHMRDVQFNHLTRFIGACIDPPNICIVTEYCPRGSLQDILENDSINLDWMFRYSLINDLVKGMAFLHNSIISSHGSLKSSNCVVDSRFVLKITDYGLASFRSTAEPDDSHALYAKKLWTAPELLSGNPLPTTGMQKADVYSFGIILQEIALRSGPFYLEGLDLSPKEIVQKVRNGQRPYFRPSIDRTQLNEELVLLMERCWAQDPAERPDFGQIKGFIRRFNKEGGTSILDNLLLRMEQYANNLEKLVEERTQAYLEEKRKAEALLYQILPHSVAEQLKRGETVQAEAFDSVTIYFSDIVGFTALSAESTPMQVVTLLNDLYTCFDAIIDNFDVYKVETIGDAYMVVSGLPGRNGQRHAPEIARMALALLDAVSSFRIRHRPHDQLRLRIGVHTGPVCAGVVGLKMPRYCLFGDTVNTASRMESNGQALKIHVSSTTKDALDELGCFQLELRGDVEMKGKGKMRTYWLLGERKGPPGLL

B1: JAL-0739 (peptide)
peptide: Octanoyl-[thz]FGLKLDRI-NH2
modifications: reading uncertain; also: printed as Occ-thz-Phe-Gly-Leu-Lys-Leu-Asp-Arg-Ile-NH2
B2: JAL-0738 (peptide)
peptide: Octanoyl-[dA]FGLKLDRI-NH2
B3: JAL-1848 (peptide)
peptide: [Oct][Sni]F[leu]L[Hyp][NMeL]VR[Che]
modifications: reading uncertain; also: printed as Oct-Sni-Phe-leu-Leu-Hyp-Nml-Val-Arg-Che
B4: JAL-1799 (peptide)
peptide: Octanoyl-[Nbhp]FLL[Hyp][NMeL]DRI-NH2
modifications: not fully specified (some residues); printed as Occ-Nbhp-Phe-leu-Leu-Hyp-Nml-Asp-Arg-Ile-NH2
B5: JAL-1805 (peptide)
peptide: 1270-[Aoc(2)][Sni]FLL[Hyp][NMeL]DRI-NH2
modifications: not fully specified (some residues); printed as (1270)-Hgl-Sni-Phe-leu-Leu-Hyp-Nml-Asp-Arg-Ile-NH2; reading uncertain
B6: JAL-1782 (peptide)
peptide: Octanoyl-[Sni]F[orn(Me2)]L[Hyp][NMeL]VRI-NH2
modifications: reading uncertain; also: printed as Occ-Sni-Phe-orn(Me2)-Leu-Hyp-Nml-Val-Arg-Ile-NH2
B7: JAL-1786 (peptide)
peptide: Octanoyl-[Sni]F[dDab](Me2)L[Hyp][NMeL]VRI-NH2
B8: JAL-1837 (peptide)
peptide: 1888-[dAoc(2)][Sni]FLL[Hyp][NMeL]DRI-NH2
modifications: not fully specified (some residues); printed as 1888-hgl-Sni-Phe-leu-Leu-Hyp-Nml-Asp-Arg-Ile-NH2; reading uncertain
B9: JAL-1784 (peptide)
peptide: Octanoyl-[Sni]F[dDab](Me2)L[Hyp][NMeL]VR[Che]
modifications: reading uncertain; also: printed as Occ-Sni-Phe-dab(Me2)-Leu-Hyp-Nml-Val-Arg-Che
B10: JAL-1798 (peptide)
peptide: Octanoyl-[Nhpr]FLL[Hyp][NMeL]DRI-NH2
modifications: not fully specified (some residues); printed as Occ-Nhpr-Phe-leu-Leu-Hyp-Nml-Asp-Arg-Ile-NH2
B11: JAL-1808 (peptide)
peptide: H-[Adx][Aoc(2)][Sni]FLL[Hyp][NMeL]DRI-NH2
modifications: not fully specified (residue 5); printed as H-Adx-Hgl-Sni-Phe-leu-Leu-Hyp-Nml-Asp-Arg-Ile-NH2; reading uncertain
B12: JAL-1800 (peptide)
peptide: Octanoyl-SFLL[Hyp][NMeL]DRI-NH2
modifications: not fully specified (some residues); printed as Occ-ser-Phe-leu-Leu-Hyp-Nml-Asp-Arg-Ile-NH2
B13: JAL-1844 (peptide)
peptide: [Oct][Sni]F[leu]L[Pro(trans-4-NH2)][NMeL]VP[Che]
modifications: reading uncertain; also: printed as Oct-Sni-Phe-leu-Leu-Tap-Nml-Val-Pro-Che
B14: JAL-1803 (peptide)
peptide: {Gluc‑Aoa}-[dAoc(2)][Sni]FLL[Hyp][NMeL]DRI-NH2
modifications: not fully specified (some residues); printed as Gluc-Aoa-hgl-Sni-Phe-leu-Leu-Hyp-Nml-Asp-Arg-Ile-NH2
B15: JAL-1804 (peptide)
peptide: 1913-[Aoc(2)][Sni]FLL[Hyp][NMeL]DRI-NH2
modifications: not fully specified (some residues); printed as (1913)-Hgl-Sni-Phe-leu-Leu-Hyp-Nml-Asp-Arg-Ile-NH2; reading uncertain
B16: JAL-1785 (peptide)
peptide: Octanoyl-[Sni]F[dDab](Me2)L[Hyp][NMeL]DRI-NH2
B17: JAL-1806 (peptide)
peptide: 1888-[Aoc(2)][Sni]FLL[Hyp][NMeL]DRI-NH2
modifications: not fully specified (some residues); printed as (1888)-Hgl-Sni-Phe-leu-Leu-Hyp-Nml-Asp-Arg-Ile-NH2; reading uncertain
B18: JAL-1846 (peptide)
peptide: [Occ][Sni]F[orn(Me2)]L[Pro(trans-4-NH2)][NMeL]VP[Che]
modifications: reading uncertain; also: printed as Occ-Sni-Phe-orn(Me2)-Leu-Tap-Nml-Val-Pro-Che
B19: JAL-1783 (peptide)
peptide: Octanoyl-[Sni]F[dK](Me2)L[Hyp][NMeL]VRI-NH2
B20: JAL-1807 (peptide)
peptide: Octanoyl-[Aoc(2)][Sni]FLL[Hyp][NMeL]DRI-NH2
modifications: not fully specified (some residues); printed as Occ-Hgl-Sni-Phe-leu-Leu-Hyp-Nml-Asp-Arg-Ile-NH2
B21: JAL-1847 (peptide)
peptide: [Oct][Sni]F[orn(Me2)]L[Hyp][NMeL]VP[Che]
modifications: reading uncertain; also: printed as Oct-Sni-Phe-orn(Me2)-Leu-Hyp-Nml-Val-Pro-Che
B22: JAL-1802 (peptide)
peptide: {Gluc‑Aoa}-[Aoc(2)][Sni]FLL[Hyp][NMeL]DRI-NH2
modifications: not fully specified (some residues); printed as Gluc-Aoa-Hgl-Sni-Phe-leu-Leu-Hyp-Nml-Asp-Arg-Ile-NH2
B23: JAL-1843 (peptide)
peptide: [Oct][Sni]F[leu]L[Pro(trans-4-NH2)][NMeL]DR[Che]
modifications: reading uncertain; also: printed as Oct-Sni-Phe-leu-Leu-Tap-Nml-Asp-Arg-Che
B24: JAL-0740 (peptide)
peptide: Octanoyl-[aze]FGLKLDRI-NH2
modifications: reading uncertain; also: printed as Occ-aze-Phe-Gly-Leu-Lys-Leu-Asp-Arg-Ile-NH2
B25: JAL-1845 (peptide)
peptide: [Occ][Sni]F[orn(Me2)]L[Hyp][NMeL]VP[Che]
modifications: reading uncertain; also: printed as Occ-Sni-Phe-orn(Me2)-Leu-Hyp-Nml-Val-Pro-Che
B26: JAL-1801 (peptide)
peptide: Octanoyl-[d(hSer)]FLL[Hyp][NMeL]DRI-NH2
modifications: not fully specified (some residues); printed as Occ-hse-Phe-leu-Leu-Hyp-Nml-Asp-Arg-Ile-NH2
B27: JAL-1838 (peptide)
peptide: H-[Adx][dAoc(2)][Sni]F[leu]L[Hyp][NMeL]DRI-NH2
modifications: reading uncertain; also: printed as H-Adx-hgl-Sni-Phe-leu-Leu-Hyp-Nml-Asp-Arg-Ile-NH2

Target: T1, natriuretic peptide receptor-B
Experiment: cell-based or functional assay

Row | Binder | EC50 group, cGMP in GTM-3 cells [µM]
1 | B1 | ≤ 15
2 | B2 | ≤ 15
3 | B3 | ≤ 5
4 | B4 | ≤ 5
5 | B5 | ≤ 15
6 | B6 | ≤ 1
7 | B7 | ≤ 5
8 | B8 | ≤ 5
9 | B9 | ≤ 1
10 | B10 | ≤ 5
11 | B11 | ≤ 1
12 | B12 | ≤ 5
13 | B13 | ≤ 5
14 | B14 | ≤ 1
15 | B15 | ≤ 5
16 | B16 | ≤ 1
17 | B17 | ≤ 5
18 | B18 | ≤ 5
19 | B19 | ≤ 15
20 | B20 | ≤ 15
21 | B21 | ≤ 15
22 | B22 | ≤ 5
23 | B23 | ≤ 1
24 | B24 | ≤ 15
25 | B25 | ≤ 5
26 | B26 | ≤ 5
27 | B27 | ≤ 5
